# Source: PMC4352895 (2015)
# Ends that are not written are not given here. Me3 = trimethyl-lysine; Me2 = dimethyl-lysine
# Target: ΔEed (Eed residues 77 to 441) (UniProt O75530 77-441)
# Test: ITC
# Chain of ΔEed (Eed residues 77 to 441) (O75530 77-441, stated change not applied): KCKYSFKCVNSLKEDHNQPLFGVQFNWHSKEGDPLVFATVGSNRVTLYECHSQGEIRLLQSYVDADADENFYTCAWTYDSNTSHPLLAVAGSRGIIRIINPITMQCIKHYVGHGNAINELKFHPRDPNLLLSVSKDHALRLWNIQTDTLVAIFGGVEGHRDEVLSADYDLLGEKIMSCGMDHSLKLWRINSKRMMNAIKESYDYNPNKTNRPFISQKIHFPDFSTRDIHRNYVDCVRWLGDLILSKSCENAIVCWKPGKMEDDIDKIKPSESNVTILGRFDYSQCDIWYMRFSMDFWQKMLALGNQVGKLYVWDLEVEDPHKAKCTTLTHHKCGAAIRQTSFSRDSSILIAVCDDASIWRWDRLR
row,Binder,Kd [µM]
1,"QLATKAARKSAPATG (dimethyl-Lys27 (mature numbering; K28 of precursor). Taken as the H3K27me2 peptide of the Figure 5C table; limits are mature 19-33 by convention for Eed binding peptides, not given) [H3K27me2]",68
2,RLQAQRK(Me3)FAQSQY [Jarid2-K116me3 peptide],3.4

# More lines, in order of falling Kd, values ahead:
row,Kd [µM],Binder
1,36.4,QLATKAARKSAPATG (trimethyl-lysine at K27) [H3K27me3 peptide]
2,10.4,RLQAQRK(Me2)FAQSQY [Jarid2-K116me2 peptide]
